Assay results taken from patent publication US20250270273A1 (NEKTAR THERAPEUTICS, published 2025).

T1: IFN-γ receptor (IFNGR; IFNGR1 and IFNGR2) on human cells (human, UniProt P15260 18-489; P38484 22-337)
T1 sequence (looked up) 1: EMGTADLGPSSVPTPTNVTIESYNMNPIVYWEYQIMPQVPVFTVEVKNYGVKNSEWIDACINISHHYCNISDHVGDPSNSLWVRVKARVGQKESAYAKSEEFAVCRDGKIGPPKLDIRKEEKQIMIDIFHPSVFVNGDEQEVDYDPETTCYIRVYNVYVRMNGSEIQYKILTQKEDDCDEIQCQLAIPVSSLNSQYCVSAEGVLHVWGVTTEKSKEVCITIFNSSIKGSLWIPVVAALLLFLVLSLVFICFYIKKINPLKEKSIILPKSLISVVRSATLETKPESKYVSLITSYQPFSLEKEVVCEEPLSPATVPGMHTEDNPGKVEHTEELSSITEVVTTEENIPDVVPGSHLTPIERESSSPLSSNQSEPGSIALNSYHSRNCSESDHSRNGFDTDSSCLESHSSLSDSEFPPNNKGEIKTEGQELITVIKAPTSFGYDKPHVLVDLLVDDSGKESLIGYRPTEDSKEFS
T1 sequence (looked up) 2: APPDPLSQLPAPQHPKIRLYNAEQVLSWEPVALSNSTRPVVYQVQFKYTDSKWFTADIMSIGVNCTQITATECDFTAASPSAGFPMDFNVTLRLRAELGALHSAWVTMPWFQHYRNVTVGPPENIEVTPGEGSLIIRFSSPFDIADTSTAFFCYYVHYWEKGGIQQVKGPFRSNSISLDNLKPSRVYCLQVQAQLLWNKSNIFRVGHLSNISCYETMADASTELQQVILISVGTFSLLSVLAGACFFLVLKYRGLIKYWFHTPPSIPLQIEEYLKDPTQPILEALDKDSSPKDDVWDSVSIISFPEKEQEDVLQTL

T2: IFNγR1 fused to the constant region of the antibody IgG1 (UniProt P15260 18-245, limits assumed)
T2 construct: also called IFNGR1; Interferon gamma receptor 1 fused to the Fc region; not shown: constant region (Fc) of IgG1, captured on the chip by an anti-human IgG antibody
T2 sequence (looked up): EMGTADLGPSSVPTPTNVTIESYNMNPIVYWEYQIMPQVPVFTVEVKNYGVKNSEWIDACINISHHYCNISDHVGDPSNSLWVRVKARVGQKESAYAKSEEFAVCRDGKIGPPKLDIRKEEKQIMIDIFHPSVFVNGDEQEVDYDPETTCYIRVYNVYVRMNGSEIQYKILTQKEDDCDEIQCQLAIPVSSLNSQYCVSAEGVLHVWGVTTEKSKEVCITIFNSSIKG


Key:
[1] = biological target: T1, IFN-γ receptor (IFNGR; IFNGR1 and …); assay: cell-based or functional assay
[2] = biological target: T2, IFNγR1 fused to the constant region of …; assay: SPR (Biacore, CM5 chip), IFNγR1-IgG1 Fc captured by anti-human IgG, analyte injected
Experimental: Briefly, the surface of a BAcore™ CM5 sensor chip was coated with anti-human IgG antibody comprising IFNγR1 fused to the constant region of the antibody IgG₁.
Each of the IFN-γ-b protein, the M135C, S98C, and S66C cysteine muteins, and Compounds 1, 2, and 3 were separately injected onto the sensor chip which was coated with IFNγR1. The affinities were measured by determining the kinetic on-rate (kₒₙ) and the kinetic off-rate (koff) rates separately, and the ratio between kₒₙ and koff was used to calculate the Kd values with the results shown in Table 9.

[3] = biological target: T1, IFN-γ receptor (IFNGR; IFNGR1 and …); assay: cell-based or functional assay; remark: listed apart in the source
[4] = biological target: T2, IFNγR1 fused to the constant region of …; assay: SPR (Biacore, CM5 chip), IFNγR1-IgG1 Fc captured by anti-human IgG

EC50 in HT-29 cells, pSTAT1 [1] | Kd [2] | koff [2] | kon [2] | EC50 in HT-29 cells, MHCI [1] | EC50 in HT-29 cells, MHCII [1] | EC50 in HT-29 cells, PD-L1 [1] | EC50 (ng/mL)-% pSTAT1, CD14+CD16+ (Intermediate) monocytes of human PBMCs [3] | EC50 (ng/mL)-% pSTAT1, CD14+CD16- (Classical) monocytes of human PBMCs [3] | EC50 (ng/mL)-% pSTAT1, CD14loCD16hi (Non-classical) monocytes of human PBMCs [3] | EC50 (ng/mL)-MFI of pSTAT1, Classical monocytes of human PBMCs [3] | EC50 (ng/mL)-MFI of pSTAT1, Intermediate monocytes of human PBMCs [3] | EC50 (ng/mL)-MFI of pSTAT1, Non-classical monocytes of human PBMCs [3] | fold decrease in affinity against IFN-γ-M135C [4] | Binder
1.4 ng/mL | 0.123 nM |  |  |  |  |  |  |  |  |  |  |  |  | rhIFN-γ-1b-M135C cysteine mutein (ligand, also called IFN-γ-M135C; hIFN-γ M135C) MQDPYVKEAENLKKYFNAGHSDVADNGTLFLGILKNWKEESDRKIMQSQIVSFYFKLFKNFKDDQSIQKSVETIKEDMNVKFFNSNKKKRDDFEKLTNYSVTDLNVQRKAIHELIQVMAELSPAAKTGKRKRSQCLFRGR
89 ng/mL | 4.9 nM | 0.00157 s⁻¹ | 321000 M⁻¹ s⁻¹ | 0.17 ng/mL | 1.8 ng/mL | 2.2 ng/mL | 4.38 ng/mL | 14 ng/mL | 4.84 ng/mL | 64.2 ng/mL | 32.7 ng/mL | 35 ng/mL |  | Compound 3, mono-mPEG2-ru-MAL-20K-rhIFN-γ-1b-M135C (ring closed) (ligand, Cys135 thioether-linked to branched mPEG2-maleimide of about 20,000 daltons (mPEG2-MAL-20K), succinimide ring closed, also called mPEG2-MAL-20K-M135C-IFN-γ; M135C 20K branched (RC)) MQDPYVKEAENLKKYFNAGHSDVADNGTLFLGILKNWKEESDRKIMQSQIVSFYFKLFKNFKDDQSIQKSVETIKEDMNVKFFNSNKKKRDDFEKLTNYSVTDLNVQRKAIHELIQVMAELSPAAKTGKRKRSQCLFRGR
14 ng/mL | 1.88 nM | 0.00106 s⁻¹ | 637000 M⁻¹ s⁻¹ | 0.076 ng/mL | 0.7 ng/mL | 1.2 ng/mL | 0.179 ng/mL | 1.45 ng/mL | 0.367 ng/mL | 7.62 ng/mL | 4.28 ng/mL | 4.57 ng/mL |  | Compound 2, mono-mPEG-MAL-20K-rhIFN-γ-1b-M135C (ligand, Cys135 thioether-linked to linear mPEG-maleimide of about 20,000 daltons (mPEG-MAL-20K), succinimide ring closed, also called mPEG-MAL-20K-M135C-IFN-γ; M135C 20K linear) MQDPYVKEAENLKKYFNAGHSDVADNGTLFLGILKNWKEESDRKIMQSQIVSFYFKLFKNFKDDQSIQKSVETIKEDMNVKFFNSNKKKRDDFEKLTNYSVTDLNVQRKAIHELIQVMAELSPAAKTGKRKRSQCLFRGR

Further lines, the binder ahead of its results:

Binder | EC50 in HT-29 cells, pSTAT1 [1] | Kd [2] | koff [2] | kon [2] | EC50 in HT-29 cells, MHCI [1] | EC50 in HT-29 cells, MHCII [1] | EC50 in HT-29 cells, PD-L1 [1] | EC50 (ng/mL)-% pSTAT1, CD14+CD16+ (Intermediate) monocytes of human PBMCs [3] | EC50 (ng/mL)-% pSTAT1, CD14+CD16- (Classical) monocytes of human PBMCs [3] | EC50 (ng/mL)-% pSTAT1, CD14loCD16hi (Non-classical) monocytes of human PBMCs [3] | EC50 (ng/mL)-MFI of pSTAT1, Classical monocytes of human PBMCs [3] | EC50 (ng/mL)-MFI of pSTAT1, Intermediate monocytes of human PBMCs [3] | EC50 (ng/mL)-MFI of pSTAT1, Non-classical monocytes of human PBMCs [3] | fold decrease in affinity against IFN-γ-M135C [4]
rhIFN-γ-1b-S66C cysteine mutein (ligand, also called IFN-γ-S66C; hIFN-γ S66C) MQDPYVKEAENLKKYFNAGHSDVADNGTLFLGILKNWKEESDRKIMQSQIVSFYFKLFKNFKDDQCIQKSVETIKEDMNVKFFNSNKKKRDDFEKLTNYSVTDLNVQRKAIHELIQVMAELSPAAKTGKRKRSQMLFRGR | 1.5 ng/mL | 0.534 nM | 0.00137 s⁻¹ | 2.57e+06 M⁻¹ s⁻¹ |  |  |  |  |  |  |  |  |  | 
Compound 1, mono-mPEG-MAL-10K-rhIFN-γ-1b-M135C (ligand, Cys135 thioether-linked to linear mPEG-maleimide of about 10,000 daltons (mPEG-MAL-10K), succinimide ring closed, also called mPEG-MAL-10K-M135C-IFN-γ; M135C 10K linear) MQDPYVKEAENLKKYFNAGHSDVADNGTLFLGILKNWKEESDRKIMQSQIVSFYFKLFKNFKDDQSIQKSVETIKEDMNVKFFNSNKKKRDDFEKLTNYSVTDLNVQRKAIHELIQVMAELSPAAKTGKRKRSQCLFRGR | 11 ng/mL | 1.42 nM | 0.00221 s⁻¹ | 1.61e+06 M⁻¹ s⁻¹ | 0.099 ng/mL | 0.83 ng/mL | 1.1 ng/mL | 0.084 ng/mL | 0.222 ng/mL | 0.106 ng/mL | 2.16 ng/mL | 0.85 ng/mL | 0.99 ng/mL | ~10 fold
rhIFN-γ-1b-N98C cysteine mutein (ligand) MQDPYVKEAENLKKYFNAGHSDVADNGTLFLGILKNWKEESDRKIMQSQIVSFYFKLFKNFKDDQSIQKSVETIKEDMNVKFFNSNKKKRDDFEKLTCYSVTDLNVQRKAIHELIQVMAELSPAAKTGKRKRSQMLFRGR | 1.7 ng/mL |  |  |  |  |  |  |  |  |  |  |  |  | 
